Experimental data published in a protein production outcome set (Wang et al. 2014).

Assay: label from the status in PepcDB records

| Sequence | protein production |
| --- | --- |
| MAISVIMSVYNERPEQVQQAVDSILKQTYLPREFVIVLDNPERSDLKDLLMDYDCRVEMIKLVCNPENLGLAASLNKAIELASSELIARMDADDISVTNRLEVELEALKTRDLDLISGNITYLDEQDEVVGEKSAIPEAEPLIQKILPYGSTIIHPTVLMRKTAVQQVGGYRLLPTAEDYDLWLRLLANGFKIGSINRRVLNYRLRGNSMTSDAWKTYLVSRYIQQLYAERKRTGADSFGRGMSALTDKINDVRAQSTFNRGQKYFTMAMASMRKRKLGQALAALVRAMVTSPDNCYYVINYLRLRTIWSVNGRRYRQQPSD | failed |
| MPRVIPPENLGCPPFRALTFDSLGLIKVTEARGQERGIPTVVNTWGEMNASRSVLAASIDDRLRNPLLAVARKDGNVEVINPCNGDLHFSYSVFGDDGCSPEDNEISALHLFRKKIDDQTERSCTLLTCTKKGDVSLRSVKFPDAHGNSTDDASPKTWKACGSGEILVGKVDGSENFSLFGGKRVEANIWDLEQCTKIWSAKCPPKNNLGIFTPTWFTSATFLSKDDHRKFVTGTKSHQVRLYDISTQRRPVLSFDFRETAITSIAEDPDGHTIYVGNASADLASFDIRTGKLLGSFLGKCSGSIRSVVRHPQHQVIASCGLDRYLRVYDVKTRQLISAVFLKQHLTGLVFDSGFSGEETAVANTVAEAATEEKMTIMDQEDDETEKAPVKRKKSKKEKRSREIVFEGEDDEENEDEIEKAPVKTKKSKKEKRSREKVSEGEEKDELRSKKTREHKKKTKIVKHNQED | failed |
| MAEIQFSKGVAETVVPEVRLSKSKNGQSGMAKFYFLEPTILAKESTDDITGMYLIDDEGEIITREVKGKFINGRPTAIEATVILNSQPEWDRFMRFMERYGAENGLGFSKSELEHHHHHH | not failed |
| MIGVVATLKVQPAKAAEFEKVFLDLAAKVKANEPGCLVYQLTRSKTEEGVYKVLELYASMDALKHHGGTDYFKAAGAAMGPTMAGAPVIEYLDAVE | not failed |
| MPNILYKIDNQYPYFTKNEKKIAQFILNYPHKVVNMTSQEIANQLETSSTSIIRLSKKVTPGGFNELKTRLSKFLPKEVTQYNVELVDNESTISLKNKLHSRSKAAL | not failed |
| MSTSAIDPVSFSLYAKDFTRFAQELGASFERYGFAVLSDYDLDQARIDAAVDSAKAFFALPVETKKQYAGVKGGARGYIPFGVETAKGADHYDLKEFWHMGRDLPPGHRFRAHMADNVWPAEIPAFKHDVSWLYNSLDGMGGKVLEAIATYLKLERDFFKPTVQDGNSVLRLLHYPPIPKDATGVRAGAHGDINTITLLLGAEEGGLEVLDRDGQWLPINPPPGCLVINIGDMLERLTNNVLPSTVHRVVNPPPERRGVPRYSTPFFLHFASDYEIKTLQNCVTAENPDRYPESITADEFLQQRLREIKLA | not failed |
| MGVALRPLLAEYKESPGWDGLGGIAAVDAFNALYQFLSGIRQADGAPLMDGQGRITSHLSGLLFRNANLIEKNITPIYVFDGKPPVFKASTLSKRREVRENAADAWEKALKEGDEESARKYAMASSKIDAFIIDSSKELLSALGIAWIQAPEEGEAQSSFMTKNGDVTYAVSQDYDSLLFGAPDLVRNITVSGKKRIRGKVLSVYPERLRLEEVLTGLSVTQEELIQIALLIGTDYNSGVPGVGPKTAVKIVREGKFYDRIGESENAAEPDQLIGYFMDPPVERSYNIESRSPDPDRVIDLLCGEHGFTQERVEAGLERLGAKKGQATLDAWF | failed |
| MQDASAWMLALAGLCVGVTAGFFVRLARLCSFGAVEDALMGGDTRRLRIFGLALGIALLGTQALVIAGQLDPGQSNYTAPALPLISIAIGSVLFGIGMAFVGTCGFGSLVRLGGGDLRSFVVILVLGGAAYATLRGMFSGFRITVLERFAITMPEGVNTDLAALTQHLSGIDLRAVIAALGGGLLCLIALGDKRLRRTPRLLAAGVALGLLTVVGWLATTKLADPFAGPVHPQSLTFVSTVGKAVYAGLLNVANFADFGVGTVFGVIAGAFIAAWHTDELRWEAFDDDHEMRRHVAGAALMGFGGILTGGCTIGQGITAGSVMALSWPIAIVGMMFGARIGIAVLVDGSPRELIRRRFDAWRELLQRRRAPALTAANRPNHRPAAPSDAPRPTAPHSLAE | failed |
| MPSSSLDISSALMIISLCALIDILSPGVLTVTAYLLLTQPNQLSSRLFVFLFITQLGYFITGLLLYFGGNSLLKRIEQLSQFDFINWFYILLGAVLVLISFSKPKETAKKRLISFIPKNTTIKGMIILGIIVFLIEFVTALPYFYSIFLMNHQTIETTPAILIIIGYNLVMVLPSLLLLGVNIIFKERLQQFLIKIRSKLNEAPISSLLVATGVIGAVFFNIGLRGILN | failed |
